# Values of other authors in paper PMC7077193.
# Target: eIF4E (Lactuca sativa)
substance,measurement,value
VPg (from UniProt P31999),Kd,0.3 µM
